Measurements taken from patent publication US20240317872A1.

Columns and labels:
human 4-1BB (human) [1] = target: human 4-1BB (human) (UniProt Q07011); test: cell-based or functional assay
human 4-1BB (human) [2] = target: human 4-1BB (human) (UniProt Q07011); test: flow cytometry on CHO-K1 cells expressing 4-1BB

Sequence of human 4-1BB (human) (Q07011 24-255): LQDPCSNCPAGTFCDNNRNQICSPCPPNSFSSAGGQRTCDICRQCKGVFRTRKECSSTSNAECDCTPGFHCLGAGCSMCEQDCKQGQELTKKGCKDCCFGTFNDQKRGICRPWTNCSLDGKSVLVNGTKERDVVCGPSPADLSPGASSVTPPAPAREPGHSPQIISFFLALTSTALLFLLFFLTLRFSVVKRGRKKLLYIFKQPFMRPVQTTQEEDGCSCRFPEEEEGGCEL

reporter gene assay (NFkB luciferase), EC50 (human 4-1BB (human) [1]): 0.33 nM
reporter gene assay (NFkB luciferase), Top (RLU) (human 4-1BB (human) [1]): 1.09e+06 RLU
EC50 (human 4-1BB (human) [2]): 0.123 nM
Top (MFI) (human 4-1BB (human) [2]): 1120 MFI
Substance: WBP342-BMK3.hIgG4 (antibody)
